Measured values from patent US7488592.

Legend:
[1] = biological target: H-Ras (N-terminal His6-tagged fusion), P01112
[2] = biological target: T1, GST-Ras2(HV)CCaaX, P01120
T1 chain: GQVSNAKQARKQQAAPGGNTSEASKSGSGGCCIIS

GST-Ras2CCaaX, P01120 = biological target: T2, GST-Ras2CCaaX, P01120
T2 chain: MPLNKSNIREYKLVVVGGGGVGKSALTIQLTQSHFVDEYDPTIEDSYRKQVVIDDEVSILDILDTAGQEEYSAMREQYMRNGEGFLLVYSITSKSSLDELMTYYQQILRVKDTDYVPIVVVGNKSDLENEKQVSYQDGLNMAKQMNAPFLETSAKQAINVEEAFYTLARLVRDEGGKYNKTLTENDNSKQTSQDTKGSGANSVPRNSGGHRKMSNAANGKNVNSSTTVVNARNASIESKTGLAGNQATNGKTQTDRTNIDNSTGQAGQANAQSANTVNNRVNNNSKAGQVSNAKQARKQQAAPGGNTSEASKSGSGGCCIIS

GST-CCaaX, P01120 = biological target: T3, GST-CCaaX, P01120
T3 chain: CCIIS

Sequence of H-Ras (N-terminal His6-tagged fusion), P01112 (P01112 whole entry, looked up, the tested form may be a part): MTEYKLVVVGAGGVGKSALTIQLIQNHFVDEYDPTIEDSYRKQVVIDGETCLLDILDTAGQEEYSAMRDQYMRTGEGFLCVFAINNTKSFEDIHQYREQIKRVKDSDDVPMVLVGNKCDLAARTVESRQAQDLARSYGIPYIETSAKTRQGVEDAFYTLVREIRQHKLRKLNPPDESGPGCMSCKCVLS

B1: Erf2p/Erf4p complex (GST-Erf4p/FLAG-Erf2p on GSH beads) (protein)
chain 1: MALVSRRSTRSESTSITKEEHTGEGSLTKLFFRWLVTLEGDQDINDGKGYISLPNVSNYIFFLGGRFRTVKGAKPLWLGVLLAIVCPMVLFSIFEAHKLWHTQNGYKVLVIFFYYFWVITLASFIRTATSDPGVLPRNIHLSQLRNNYQIPQEYYNLITLPTHSSISKDITIKYCPSCRIWRPPRSSHCSTCNVCVMVHDHHCIWVNNCIGKRNYRFFLIFLLGAILSSVILLTNCAIHIARESGGPRDCPVAILLLCYAGLTLWYPAILFTYHIFMAGNQQTTREFLKGIGSKKNPVFHRVVKEENIYNKGSFLKNMGHLMLEPRGPSFVSARKPHEAGDWRFMDLSPAHSFEKIQKI
chain 2: MCDSHQKEEDNANTSERALFFNYHEFSYSFYEDLGSEDAKPTEHDEDHKLCITHFPNVYAARGSAEFQVTRVVRVPRRFDESRSSLETPQFSTQLPGSEPAAIVGDDGTSFVRCGRYDIGDHVFGCSSVSPLSEYLSAAELAEVVHRVNGFLLREEGEVFGWRNLSGLLLDMLTGGLWSWVLGPLLSRPVFQESLALEQYVAQLNSPGGLLHERGVRLVLPRRSGCLSLDFVVPRPK
palmitate transferred (PAT assay) [1]: 40 vs 2720 pmol palmitate transferred/min/\u00b5mol substrate
palmitoylation level relative to Ras2p [1]: levels much lower (5%) than the proposed natural substrate, Ras2p
palmitate transferred (PAT assay) (Myristoylated Gi1): 55 vs 2720 pmol palmitate transferred/min/\u00b5mol substrate
palmitoylation level relative to yeast Ras2p (Myristoylated Gi1): ~5% that of yeast Ras2p
acceleration of the spontaneous rate of palmitoylation [2]: ~160-fold
palmitate incorporated into the Ras2p substrate (in vitro PAT assay, [3H]palmitoyl-CoA) [2]: 0.14 pmol/min
palmitate transferred (PAT assay) [2]: 2720 pmol palmitate transferred/min/\u00b5mol substrate
in vitro palmitoylation (PAT assay) (GST-Ras2CCaaX, P01120): palmitoylated GST(HV)CCIIS to levels similar to full-length GST-Ras2CCIIS
in vitro palmitoylation relative to GST-(HV)CCaaX (GST-CCaaX, P01120): reduced 10-fold compared with GST-(HV)CCaaX
